T1: Cc78 (Caulobacter crescentus NA1000, UniProt B8GW92 1-78, del79-82)
T1 sequence: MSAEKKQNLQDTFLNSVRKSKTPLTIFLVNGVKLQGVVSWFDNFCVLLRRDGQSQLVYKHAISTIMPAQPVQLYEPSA

B1: R157 (structured_RNA)
RNA: GGUGAGGCGCCGAGCGCCUCUGCCCUUCCUGGGCGUUUCCUCCCUAUGACUUUGUAGCCCGGUCUUCAUGGCCGGGCUUUCUUUUU
B2: ChvR (structured_RNA)
RNA: GGCGGGGCCUACAUGUCGCGCAAGUCUCCGGAGGGCCAUUCCGAGGCGGGGCCCGCUCCAGCGUCCUCAUUGGAGCGGGCGUCU

Legend:
EcCc Hfq [1] = target: T2, EcCc Hfq (Escherichia coli / Caulobacter …, UniProt P0A6X3 1-67+B8GW92:71-82, internal_change); assay: EMSA; Hill n 5.1; EMSA: 34 mM Tris-HCl pH 7.5, 50 mM NaCl, 50 mM KCl, 50 mM NH4Cl, 11.4 mM EDTA, 12% glycerol, 30 C, 30 min, ~1 nM 32P-RNA, Kd in Hfq6; anisotropy: 10 mM Tris-HCl; conditions: protein: recombinant; tags: untagged; chain copies: 6; label: 32P; stem-loops
Cc78 [2] = target: T1, Cc78; assay: EMSA; Hill n 1.3; EMSA: 34 mM Tris-HCl pH 7.5, 50 mM NaCl, 50 mM KCl, 50 mM NH4Cl, 11.4 mM EDTA, 12% glycerol, 30 C, 30 min, ~1 nM 32P-RNA, Kd in Hfq6; anisotropy: 10 mM Tris-HCl; conditions: protein: recombinant; tags: untagged after self-cleaved intein; chain copies: 6; label: 32P; stem-loops
Ec Hfq (Hfq102) [3] = target: T3, Ec Hfq (Hfq102) (Escherichia coli, UniProt P0A6X3 1-102); assay: EMSA; Hill n 8.2; Tris-glycine gel; EMSA: 34 mM Tris-HCl pH 7.5, 50 mM NaCl, 50 mM KCl, 50 mM NH4Cl, 11.4 mM EDTA, 12% glycerol, 30 C, 30 min, ~1 nM 32P-RNA, Kd in Hfq6; anisotropy: 10 mM Tris-HCl; conditions: protein: recombinant; tags: untagged; chain copies: 6; label: 32P; stem-loops
Ec65 [4] = target: T4, Ec65 (Escherichia coli, UniProt P0A6X3 1-65, del66-102); assay: EMSA; Hill n 1.0; EMSA: 34 mM Tris-HCl pH 7.5, 50 mM NaCl, 50 mM KCl, 50 mM NH4Cl, 11.4 mM EDTA, 12% glycerol, 30 C, 30 min, ~1 nM 32P-RNA, Kd in Hfq6; anisotropy: 10 mM Tris-HCl; conditions: protein: recombinant; tags: untagged; chain copies: 6; label: 32P; stem-loops
EcCc Hfq [5] = target: T2, EcCc Hfq; assay: EMSA; Hill n 1.6; EMSA: 34 mM Tris-HCl pH 7.5, 50 mM NaCl, 50 mM KCl, 50 mM NH4Cl, 11.4 mM EDTA, 12% glycerol, 30 C, 30 min, ~1 nM 32P-RNA, Kd in Hfq6; anisotropy: 10 mM Tris-HCl; conditions: protein: recombinant; tags: untagged; chain copies: 6; label: 32P; stem-loops
Ec65 [6] = target: T4, Ec65; assay: as above; conditions: protein: recombinant; tags: untagged; chain copies: 6; label: 32P; stem-loops
Ec Hfq (Hfq102) [7] = target: T3, Ec Hfq (Hfq102); assay: EMSA; Hill n 1.0; Tris-glycine gel; EMSA: 34 mM Tris-HCl pH 7.5, 50 mM NaCl, 50 mM KCl, 50 mM NH4Cl, 11.4 mM EDTA, 12% glycerol, 30 C, 30 min, ~1 nM 32P-RNA, Kd in Hfq6; anisotropy: 10 mM Tris-HCl; conditions: protein: recombinant; tags: untagged; chain copies: 6; label: 32P; stem-loops
Cc78 [8] = target: T1, Cc78; assay: EMSA; Hill n 1.4; EMSA: 34 mM Tris-HCl pH 7.5, 50 mM NaCl, 50 mM KCl, 50 mM NH4Cl, 11.4 mM EDTA, 12% glycerol, 30 C, 30 min, ~1 nM 32P-RNA, Kd in Hfq6; anisotropy: 10 mM Tris-HCl; conditions: protein: recombinant; tags: untagged after self-cleaved intein; chain copies: 6; label: 32P; stem-loops

| Binder | Kd (EcCc Hfq [1]) [nM] | Kd (Cc78 [2]) [nM] | Kd (Ec Hfq (Hfq102) [3]) [nM] | Kd (Ec65 [4]) [nM] | Kd (EcCc Hfq [5]) [nM] | Kd (Ec65 [6]) [nM] | Kd (Ec Hfq (Hfq102) [7]) [nM] | Kd (Cc78 [8]) [nM] |
| --- | --- | --- | --- | --- | --- | --- | --- | --- |
| B1 | 55.7 ± 2.7 | 349 ± 7 | 14.3 ± 0.1 | 6.3 ± 1.1 |  |  |  |  |
| B2 |  |  |  |  | 228 ± 84 | 20.2 ± 0.3 | 17.2 ± 1 | 256 ± 25 |
